The values below come from US20130095480A1 (BOARD OF TRUSTEES OF THE UNIVERSITY OF ARKANSAS, published 2013).

This assay has as its target T1, Chondroitin Sulfate Proteoglycan 4 (CSPG4) (human, UniProt Q6UVK1 30-2322, carries chondroitin sulfate (CS) glycosaminoglycan chains).
T1 construct: whole, on cells; also called High Molecular Weight Melanoma Associated Antigen; Melanoma Chondroitin Sulfate Proteoglycan
Description: flow cytometry, recombinant P-selectin/Fc on M14-CSPG4 versus mock-transfected M14 cells. On the procedure:
Briefly, cells were incubated with mAb or P-selectin/Fc, washed and stained with FITC-conjugated anti-mouse IgM or anti-human IgG prior to binding detection by flow cytometry. R-phycoerythrin-conjugated polyclonal goat anti-mouse F(ab′)₂ was used as secondary for detection of anti-CSPG4 binding.
Background: In flow cytometry, cells or beads pass a laser one at a time.

T1 sequence (Q6UVK1 30-2322): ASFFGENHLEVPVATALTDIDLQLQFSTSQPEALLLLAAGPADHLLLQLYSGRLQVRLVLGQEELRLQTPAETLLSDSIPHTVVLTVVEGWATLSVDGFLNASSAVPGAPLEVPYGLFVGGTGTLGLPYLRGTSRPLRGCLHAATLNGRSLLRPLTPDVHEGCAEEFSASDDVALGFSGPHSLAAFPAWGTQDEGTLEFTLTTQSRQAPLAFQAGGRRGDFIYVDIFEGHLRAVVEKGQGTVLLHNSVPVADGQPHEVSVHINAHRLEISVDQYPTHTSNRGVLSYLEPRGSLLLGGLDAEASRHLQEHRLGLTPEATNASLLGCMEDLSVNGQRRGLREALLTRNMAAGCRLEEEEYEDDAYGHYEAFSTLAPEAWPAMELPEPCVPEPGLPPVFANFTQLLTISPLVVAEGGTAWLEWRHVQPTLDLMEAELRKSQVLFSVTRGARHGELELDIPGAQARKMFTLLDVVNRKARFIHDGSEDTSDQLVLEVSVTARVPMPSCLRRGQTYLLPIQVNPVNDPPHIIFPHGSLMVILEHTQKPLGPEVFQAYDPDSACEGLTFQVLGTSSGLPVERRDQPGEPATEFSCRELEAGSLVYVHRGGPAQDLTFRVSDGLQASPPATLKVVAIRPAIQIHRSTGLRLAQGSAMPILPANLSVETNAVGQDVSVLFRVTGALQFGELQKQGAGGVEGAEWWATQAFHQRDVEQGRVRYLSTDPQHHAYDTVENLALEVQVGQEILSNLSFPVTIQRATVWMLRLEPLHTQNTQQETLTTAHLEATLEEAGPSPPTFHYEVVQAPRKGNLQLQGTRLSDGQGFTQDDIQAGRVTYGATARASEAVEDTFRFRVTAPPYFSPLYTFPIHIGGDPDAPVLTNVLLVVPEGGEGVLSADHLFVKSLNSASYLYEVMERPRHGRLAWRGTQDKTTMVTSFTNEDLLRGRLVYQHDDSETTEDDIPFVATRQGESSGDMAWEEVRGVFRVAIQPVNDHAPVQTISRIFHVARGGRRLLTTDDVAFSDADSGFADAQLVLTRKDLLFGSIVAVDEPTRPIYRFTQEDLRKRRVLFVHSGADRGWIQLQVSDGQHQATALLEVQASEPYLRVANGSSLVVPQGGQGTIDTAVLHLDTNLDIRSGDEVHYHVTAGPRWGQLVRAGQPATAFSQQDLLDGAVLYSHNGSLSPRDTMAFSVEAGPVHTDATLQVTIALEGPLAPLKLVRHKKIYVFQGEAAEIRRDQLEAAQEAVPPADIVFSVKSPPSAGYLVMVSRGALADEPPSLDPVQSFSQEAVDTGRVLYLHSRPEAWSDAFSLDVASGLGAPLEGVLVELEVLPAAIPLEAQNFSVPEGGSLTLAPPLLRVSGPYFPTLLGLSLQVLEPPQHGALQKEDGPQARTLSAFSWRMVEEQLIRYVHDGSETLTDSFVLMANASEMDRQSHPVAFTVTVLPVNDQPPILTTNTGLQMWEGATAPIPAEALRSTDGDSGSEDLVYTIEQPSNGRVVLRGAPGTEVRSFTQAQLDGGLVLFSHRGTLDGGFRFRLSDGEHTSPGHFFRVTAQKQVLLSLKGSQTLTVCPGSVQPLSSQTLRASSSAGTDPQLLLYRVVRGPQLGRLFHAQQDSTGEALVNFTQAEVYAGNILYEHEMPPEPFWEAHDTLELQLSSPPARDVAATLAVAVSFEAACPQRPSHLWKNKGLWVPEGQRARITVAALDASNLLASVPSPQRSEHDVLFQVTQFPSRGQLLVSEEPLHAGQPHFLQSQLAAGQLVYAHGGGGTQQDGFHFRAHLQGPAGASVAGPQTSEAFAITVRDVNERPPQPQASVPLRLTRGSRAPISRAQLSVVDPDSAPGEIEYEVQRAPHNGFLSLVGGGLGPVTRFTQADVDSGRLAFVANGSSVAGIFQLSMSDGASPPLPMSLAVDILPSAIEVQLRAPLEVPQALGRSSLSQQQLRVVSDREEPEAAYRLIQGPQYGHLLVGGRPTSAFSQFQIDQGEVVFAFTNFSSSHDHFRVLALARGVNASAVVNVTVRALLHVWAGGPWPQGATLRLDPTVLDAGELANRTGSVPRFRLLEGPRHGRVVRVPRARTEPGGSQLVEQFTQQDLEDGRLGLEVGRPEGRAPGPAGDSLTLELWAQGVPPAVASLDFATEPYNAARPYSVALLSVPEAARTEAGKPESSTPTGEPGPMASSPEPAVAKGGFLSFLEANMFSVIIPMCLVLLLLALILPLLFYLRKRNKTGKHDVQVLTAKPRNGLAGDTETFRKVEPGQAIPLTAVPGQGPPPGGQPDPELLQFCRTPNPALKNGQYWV

B1: recombinant human P-selectin/Fc (human IgG) (Fc fusion, UniProt P16109 42-771, looked up)
chain: WTYHYSTKAYSWNISRKYCQNRYTDLVAIQNKNEIDYLNKVLPYYSSYYWIGIRKNNKTWTWVGTKKALTNEAENWADNEPNNKRNNEDCVEIYIKSPSAPGKWNDEHCLKKKHALCYTASCQDMSCSKQGECLETIGNYTCSCYPGFYGPECEYVRECGELELPQHVLMNCSHPLGNFSFNSQCSFHCTDGYQVNGPSKLECLASGIWTNKPPQCLAAQCPPLKIPERGNMTCLHSAKAFQHQSSCSFSCEEGFALVGPEVVQCTASGVWTAPAPVCKAVQCQHLEAPSEGTMDCVHPLTAFAYGSSCKFECQPGYRVRGLDMLRCIDSGHWSAPLPTCEAISCEPLESPVHGSMDCSPSLRAFQYDTNCSFRCAEGFMLRGADIVRCDNLGQWTAPAPVCQALQCQDLPVPNEARVNCSHPFGAFRYQSVCSFTCNEGLLLVGASVLQCLATGNWNSVPPECQAIPCTPLLSPQNGTMTCVQPLGSSSYKSTCQFICDEGYSLSGPERLDCTRSGRWTDSPPMCEAIKCPELFAPEQGSLDCSDTRGEFNVGSTCHFSCDNGFKLEGPNNVECTTSGRWSATPPTCKGIASLPTPGVQCPALTTPGQGTMYCRHHPGTFGFNTTCYFGCNAGFTLIGDSTLSCRPSGQWTAVTPACRAVKCSELHVNKPIAMNCSNLWGNFSYGSICSFHCLEGQLLNGSAQTACQENGHWSTTVPTCQAGPLTIQEA
notes: Bought reagent (R&D Systems); also called recombinant P-selectin; not shown: Fc of human IgG
Take B1: the binding result is recorded as “binds”.
